Experimental data reported in PMC5647379, “Calmodulin confers calcium sensitivity to the stability of the distal intracellular assembly domain of Kv7.2 channels” (Scientific Reports, 2017).

Experiments:
[1] = target: T1, dansylated calmodulin (D-CaM, 5-(dimethylamino)naphtalene-1-sulfonyl-calmodulin) (rat, UniProt P0DP29 1-149, dansyl (5-(dimethylamino)naphtalene-1-sulfonyl) label, residue not stated); test: other fluorescence titration; as a2 but with an excess of free Ca2+ (3.9 µM; 9.63 mM Ca2+ added to the Fluorescence buffer); apparent affinity (EC50); settings: both partners purified
[2] = target: T1, dansylated calmodulin (D-CaM, …); test: other fluorescence titration; D-CaM 12.5 nM in the cuvette, increasing concentrations of GST-fusion protein; no Ca2+ (EGTA 10 mM); Tris-HCl 25 mM pH 7.4, KCl 120 mM, NaCl 5 mM, MgCl2 2 mM; 25 °C; apparent affinity (EC50 of a Hill fit to the fluorescence enhancement); settings: both partners purified

B1: GST-Kv7.2 AB (helices AB fused to GST) (domain or fragment)
chain: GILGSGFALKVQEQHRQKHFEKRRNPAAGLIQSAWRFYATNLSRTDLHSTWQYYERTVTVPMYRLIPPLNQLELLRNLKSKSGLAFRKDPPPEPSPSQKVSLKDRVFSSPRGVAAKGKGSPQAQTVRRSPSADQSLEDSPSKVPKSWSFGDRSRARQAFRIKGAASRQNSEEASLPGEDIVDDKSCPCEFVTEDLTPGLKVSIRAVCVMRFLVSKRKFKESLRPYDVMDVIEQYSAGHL
An EC50 [1] of 27.1 nM and an EC50 [2] of 11 nM were found for B1 in this work.
